Experimental data as given in patent US20220064277A1 (NEURACLE SCIENCE, published 2022).

Molecular target: human FAM19A5-Fc protein (Lot# 170815) (human, UniProt Q7Z5A7 44-132)
Assay: cell-based or functional assay

Chain of human FAM19A5-Fc protein (Lot# 170815) (Q7Z5A7 other isoform, or with tags, fused parts or gaps): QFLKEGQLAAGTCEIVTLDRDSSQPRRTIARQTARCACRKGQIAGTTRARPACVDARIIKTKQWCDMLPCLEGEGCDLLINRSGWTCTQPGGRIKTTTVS

IC50 for inhibition of the FAM19A5-Fc-enhanced TNF-α production by LPS-stimulated BV2 cells (mouse TNF-α ELISA): 11.5 µg/mL
B1: anti-FAM19A5 antibody (clone "1-30"; Lot# A5m180831) (antibody, V domains shown)
VH: AVTLDESGGGLQTPGGALRLSCKASGFDFESFNMFWVRQAPGKGLEYVSQISSSEEDENYAPAVKGRATISRDNGQSTLYLQMNSLRAEDTGTYYCAKSSYDCPYGHCSSGVDSAGEIDAWGHGTEVIVSS
VL: ALTQPSSVSANPGETVKITCSGGGSEEEQYYYGWYQQKPGSAPVTLIYQDEERPSDIPSRFSGSTSGSTATLTITGVQAGDEADYYCGSWDSEDEDHFGAGTTLTVL
